# According to patent US20020053098:
# What was measured:
# [1] = target: herbicide-resistant mutant (Met124His) Arabidopsis AHAS large subunit protein (UniProt P17597)
# [2] = target: wild type Arabidopsis AHAS large subunit protein (pAC774) (UniProt P17597)
# Sequence of Arabidopsis AHAS small subunit protein expressed from plasmid F1 (chain, as listed by the source): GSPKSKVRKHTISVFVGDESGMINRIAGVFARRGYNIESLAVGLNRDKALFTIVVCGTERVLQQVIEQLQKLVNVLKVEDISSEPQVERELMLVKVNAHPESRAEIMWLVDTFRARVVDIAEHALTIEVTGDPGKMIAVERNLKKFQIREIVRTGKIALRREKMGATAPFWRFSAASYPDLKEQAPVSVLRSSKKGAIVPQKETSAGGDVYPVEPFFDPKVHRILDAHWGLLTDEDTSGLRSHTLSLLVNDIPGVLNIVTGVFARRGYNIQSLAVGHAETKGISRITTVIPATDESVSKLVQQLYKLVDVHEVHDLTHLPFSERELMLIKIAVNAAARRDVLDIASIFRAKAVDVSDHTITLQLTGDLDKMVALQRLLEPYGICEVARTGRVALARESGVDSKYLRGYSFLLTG
substance,measurement,setting,value
Arabidopsis AHAS small subunit protein expressed from plasmid F1,"AHAS enzymatic activity of the mutant large subunit in vitro, in the presence of small subunit",[1],the enzymatic activity of a herbicide-resistant form of the large subunit is also enhanced
same,"AHAS enzymatic activity of the large subunit in vitro, with increasing amounts of small subunit",[2],small subunit protein enhances the level of enzymatic activity of the catalytic large subunit
